The values that follow come from patent US9603922B2, “Modulation of NKT cell activity with antigen-loaded CD1d molecules” (VACCINEX, INC., priority 2007, dated 2017).

Assay [1] has as its system splenocytes, CD3+ T cells. Description: Conventional T cells (CD3+) in splenocyte cultures of treated mice. It counts as cell-based, mouse. The following applies: for Conventional T cell population of CD3+ cells, in words: in vitro stimulation of splenocyte cultures; for Percentage of CD3+ cells of total spleen cells: in vitro stimulation, 7% without stimulation. From the text: Cells were stained with anti NK1.1-PE and anti CD3-FITC and analysed by flow cytometry. NK cells are reported as NK1.1 positive/CD3 negative population. b c Induction of DC maturation and T cell proliferation by αGalCer/sCD1d activated NKT cells in vivo. Splenocytes were isolated after five treatments i.v. with either PBS (control), αGalCer, or αGalCer/sCD1d and cultured for 4 days with GM-CSF and then 3 more days with either PBS (control, white bars), αGalCer (grey bars), or αGalCer/sCD1d (sCD1d, black bars). Cells were then stained with anti CD11c-FITC and biotinylated anti CD40 and Streptavidin-PE to detect double positive mature DCs (c), or with anti NK1.1-PE and anti CD3-FITC to detect CD3 single positive T cells (d) by flow cytometry.
In absence of a specific antigen: Several reports have described the capacity of iNKT cells to transactivate NK, DC and T cells upon activation with free αGalCer or αGalCer-pulsed dendritic cells (Nieda, M., et al. Blood 103:383-389 (2004); Hermans, I. F., et al. J Immunol 171:5140-5147 (2003); Smyth, M. J., et al. J Exp Med 201:1973-1985 (2005)). […] Regarding NK cells, their frequency indeed increased after a single injection of free αGalCer or of αGalCer/sCD1d with or without anti HER2, as shown by the increase of the NK1.1^+ CD3^− cell population (FIG. 7a). Markers for DC maturation were also analyzed after 5 days in vitro culture of splenocytes isolated at the end of a systemic treatment, as described in Example 1. […] From 7% of total spleen cells without stimulation, percentage of CD3^+ cells increased to 17, 27 and 30%, respectively in naïve, αGalCer and αGalCer/sCD1d treated mice.

Assay [2] concerns H-2Kb/OVA specific CD8 T cells. Kind of assay: Adjuvant effect on H-2Kb/OVA specific CD8 T cells upon ovalbumin immunization. The following applies: for Frequency of Kb/OVA specific CTLs in the spleens, of total CD8: after OVA peptide boost, 5 days in vitro culture without further stimulation; for Frequency of specific T cells: after boost and in vitro re-stimulation with same stimuli; for H-2Kb/OVA257-264 tetramer CD8 double positive T cells after priming: priming with 200 μg ovalbumin plus adjuvant. It counts as in vivo, mouse. The procedure: FIG. 8: αGalCer loaded sCD1d acts as a strong adjuvant for the expansion of antigen-specific T cells upon active immunization. a kinetics of expansion of H-2K^b/OVA specific CTLs. Mice were primed with 200 μg ovalbumin either as such (i.v.) or with MONTANIDE™ adjuvant (3:7 ratio, s.c.) or with 1 μg αGalCer or 20 μg αGalCer/sCD1d (i.v.). Mice were bled every 5-7 days and PBMC were stained with H-2K^b/oVA tetramer+anti-CD8. Results were expressed as tetramer+ and CD8+ […] as a percentage of total CD8+ T cells. Mice were boosted with OVA peptide (20 μg) on day 22 employing the same adjuvants and route of injection as for primary immunization. b Ten days later, mice were sacrificed and splenocytes were cultured another five days either with no stimuli or with the same stimuli and adjuvants as for the in vivo boost. Frequency of OVA specific T cells was measured as in a. c The presence of mature DC in the same cultures as in b was analyzed by surface staining with anti CD11c and anti CD40 antibodies.
Together with active OVA immunization: An adjuvant effect has previously been attributed to free αGalCer and its potential use in vaccination has been proposed (Silk, J. D., et al. J Clin Invest 114:1800-1811 (2004)). […] In this context, the adjuvant effect on the expansion of antigen-specific T cells in the model of C57 BL/6 mice immunized with ovalbumin was investigated (Hermans, I. F., et al. J Immunol 171:5140-5147 (2003)). […] Furthermore, after boosting these same mice with OVA peptide in the same adjuvants in vivo and then 5 days in vitro culture without further stimulation, the frequency of K^b/OVA specific CTLs in the spleens reached up to 45% of total CD8 in mice that received a boost of OVA peptide with αGalCer/sCD1d, whereas the frequency was 12% in mice boosted with peptide and αGalCer alone (FIG. 8b). A further increase could be obtained by in vitro re-stimulation with the same respective stimuli and the frequency of specific T cells reached close to 70% in both αGalCer and αGalCer/sCD1d-treated mice (FIG. 8b).

The next assay deals with liver iNKT cells. Description: InvTCR downmodulation: disappearance of liver iNKT cells after single i.p. injection. The assay is classed as in vivo, mouse. As to conditions: 20 hours after single i.p. injection; αGalCer 5 μg, sCD1d 20 μg, fusion 40 μg. The protocol: Frequency of iNKT cells was measured by flow cytometry using CD1d-Tetramer-EXTRAVIDIN®-PE and anti CD3 FITC.
Generation of CD1d tetramer. For this purpose, the soluble β2m-CD1d molecule was modified at the C-terminus by the addition of a cysteine after the stretch of histidine residues. After a mild reduction with 0.5 mM β-mercaptoethanol for 30 min at 30C and purification on a PD10 desalting column, the pure recombinant protein was biotinylated on the cystein residue by the chemical coupling of a biotin-maleimide linker (EZ-linked BM, Pierce) in 2M excess overnight at RT. The excess of linker was removed by gel filtration on a SUPERDEX™S200 column (Pharmacia Biotech). The biotinylated CD1d was loaded with αGalCer as described above and was tetramerized on EXTRAVIDIN®-PE (Sigma) and resulting complex was used at 5 μg/ml for NKT cell staining.
Isolation of liver, lung and spleen lymphocytes. Mouse livers and lungs were homogenized with 100 μm strainer and lymphocytes were isolated using a PERCOLL™ density gradient (Amersham Biosciences). After two washings, cells were either re-challenged or directly analyzed by fluorescence cytometry. Spleens were homogenized with a 70 μm strainer, debris were eliminated by spontaneous sedimentation and splenocytes were recovered by centrifugation. […]

Consider `CCCCCCCCCCCCCCCCCCCCCCCCCC(=O)N[C@@H](CO[C@H]1O[C@H](CO)[C@H](O)[C@H](O)[C@H]1O)[C@H](O)[C@H](O)CCCCCCCCCCCCCC` [αGalCer, α-galactosylceramide, reference compound], for which the “Conventional T cell population of CD3+ cells, in words” value in assay [1] was “no significant effect”. In assay [2], the “Frequency of Kb/OVA specific CTLs in the spleens, of total CD8” value is on record as 12%; the “Frequency of specific T cells” value is approximately 70%; the “H-2Kb/OVA257-264 tetramer CD8 double positive T cells after priming” value is “no H-2K^b/OVA257-264 tetramer CD8 double positive T cells could be detected”. Also, in the assay with liver iNKT cells, the “inv TCR downmodulation / disappearance of liver iNKT cells” value was “inv TCR downmodulation occurred”.

B1: αGalCer/sCD1d: soluble monomeric mouse β2m-CD1d, His-tagged, loaded with αGalCer (protein)
chain: IQKTPQIQVYSRHPPENGKPNILNCYVTQFHPPHIEIQMLKNGKKIPKVEMSDMSFSKDWSFYILAHTEFTPTETDTYACRVKHASMAEPKTVYWDRDMGGGGSGGSGSGGGSEAQQKNYTFRCLQMSSFANRSWSRTDSVVWLGDLQTHRWSNDSATISFTKPWSQGKLSNQQWEKLQHMFQVYRVSFTRDIQELVKMMSPKEDYPIEIQLSAGCEMYPGNASESFLHVAFQGKYVVRFWGTSWQTVPGAPSWLDLPIKVLNADQGTSATVQMLLNDTCPLFVRGLLEAGKSDLEKQEKPVAWLSSVPSSADGHRQLVCHVSGFYPKPVWVMWMRGDQEQQGTHRGDFLPNADETWYLQATLDVEAGEEAGLACRVKHSSLGGQDIILYWSSGSGGHHHHHH
In the case of B1, the “Conventional T cell population of CD3+ cells, in words” value in assay [1] is on record as “significantly increased”. In addition, in assay [1] (splenocytes of naïve mice), the “Percentage of CD3+ cells of total spleen cells” value (shortened to “Percentage”) was found to be 17%. Moreover, the “Percentage” value in assay [1] (splenocytes of αGalCer treated mice) is recorded as 27%. For the same molecule, the “Percentage” value in assay [1] (splenocytes of αGalCer/sCD1d treated mice) was 30%. For the same molecule, in assay [2], the “Frequency of Kb/OVA specific CTLs in the spleens, of total CD8” value is reported as “up to 45%”; the “Frequency of specific T cells” value is given as approximately 70%; the “H-2Kb/OVA257-264 tetramer CD8 double positive T cells after priming” value was “could be detected”. Further, the “inv TCR downmodulation / disappearance of liver iNKT cells” value in the assay on liver iNKT cells is “transient disappearance of liver iNKT cells”.
